For three proteins, Km, kcat and kcat/Km results are on record in publication PMC3534050, “Simultaneous Single-Sample Determination of NMNAT Isozyme Activities in Mouse Tissues” (PLoS ONE, 2012).

Substrate in data set [1]: Nc1ncnc2c1ncn2[C@@H]1O[C@H](COP(=O)(O)OP(=O)(O)OP(=O)(O)O)[C@@H](O)[C@H]1O
Put plainly: C18-HPLC of NAD formed, nonlinear fit. The format is biochemical, Mus musculus. The following applies: co-substrate NMN, ATP 25–175 µM, HEPES/KOH pH 7.5, MgCl2, 37°C. From the text:
(§1) C18-HPLC of NAD formed, nonlinear fit on mNMNAT1

Substrate in data set [2]: NC(=O)c1ccc[n+]([C@@H]2O[C@H](COP(=O)(O)O)[C@@H](O)[C@H]2O)c1
The experiment in a line: C18-HPLC of NAD formed, nonlinear fit. The format is biochemical, Mus musculus. The following applies: co-substrate ATP, NMN 5–100 µM, HEPES/KOH pH 7.5, MgCl2, 37°C.
Text: as §1

Substrate in data set [3]: Nc1ncnc2c1ncn2[C@@H]1O[C@H](COP(=O)(O)OP(=O)(O)OP(=O)(O)O)[C@@H](O)[C@H]1O
The experiment in a line: C18-HPLC of NAD formed, nonlinear fit. Particulars: co-substrate NMN, ATP 25–175 µM, HEPES/KOH pH 7.5, MgCl2, 37°C. Format: biochemical, Mus musculus. From the text: (§2) C18-HPLC of NAD formed, nonlinear fit on mNMNAT3
This is another data set of the same source.

Substrate in data set [4]: NC(=O)c1ccc[n+]([C@@H]2O[C@H](COP(=O)(O)O)[C@@H](O)[C@H]2O)c1
Put plainly: C18-HPLC of NAD formed, nonlinear fit. The format is biochemical, Mus musculus. The following applies: co-substrate ATP, NMN 5–100 µM, HEPES/KOH pH 7.5, MgCl2, 37°C.
Text: as §2
This is another data set of the same source.

Substrate in data set [5]: Nc1ncnc2c1ncn2[C@@H]1O[C@H](COP(=O)(O)OP(=O)(O)OP(=O)(O)O)[C@@H](O)[C@H]1O
Put plainly: purified protein. The following applies: co-substrate NMN, ATP 25–175 µM, HEPES/KOH pH 7.5, MgCl2, 37°C.

Substrate in data set [6]: NC(=O)c1ccc[n+]([C@@H]2O[C@H](COP(=O)(O)O)[C@@H](O)[C@H]2O)c1
Put plainly: C18-HPLC of NAD formed, nonlinear fit. Format: biochemical, Mus musculus. The following applies: co-substrate ATP, NMN 5–100 µM, HEPES/KOH pH 7.5, MgCl2, 37°C. The source holds these as a separate data set.

By Km is commonly meant the concentration of substrate that gives half-maximal velocity. By kcat is commonly meant the number of substrate molecules converted per active site and unit of time at saturation. As usually defined, the kcat/Km is the turnover number divided by the Michaelis constant.

B1: mNMNAT1 (Mus musculus) (protein)
chain: MDSSKKTEVVLLACGSFNPITNMHLRLFELAKDYMHATGKYSVIKGIISPVGDAYKKKGLIPAHHRIIMAELATKNSHWVEVDTWESLQKEWVETVKVLRYHQEKLATGSCSYPQSSPALEKPGRKRKWADQKQDSSPQKPQEPKPTGVPKVKLLCGADLLESFSVPNLWKMEDITQIVANFGLICITRAGSDAQKFIYESDVLWRHQSNIHLVNEWITNDISSTKIRRALRRGQSIRYLVPDLVQEYIEKHELYNTESEGRNAGVTLAPLQRNAAEAKHNHSTL
notes: predicted mass 34518 Da
Consider B1, for which, in data set [1], the Km is 33.5 ± 5.1 µM, the kcat turned out to be 15 ± 0.7 s⁻¹ and the kcat/Km came out at 450000 M⁻¹ s⁻¹. In addition, in data set [2], the Km is 25.2 ± 5.6 µM, the kcat amounted to 15.5 ± 1.3 s⁻¹ and the specificity constant (kcat/Km) is 610000 M⁻¹ s⁻¹.

B2: mNMNAT3 (Mus musculus) (protein)
chain: MKNRIPVVLLACGSFNPITNMHLRLFEVARDHLHQTGRYQVIEGIISPVNDSYGKKDLVASHHRVAMARLALQTSDWIRVDPWESEQAQWMETVKVLRHHHRELLRSSAQMDGPDPSKTPSASAALPELKLLCGADVLKTFQTPNLWKDTHIQEIVEKFGLVCVSRSGHDPERYISDSPILQQFQHNIHLAREPVLNEISATYVRKALGQGQSVKYLLPEAVITYIRDQGLYINDGSWKGKGKTG
notes: predicted mass 29866 Da
As to B2, in data set [3], the Km worked out at 39.0 ± 5.9 µM, the kcat was determined as 0.74 ± 0.04 s⁻¹ and the specificity constant (kcat/Km) worked out at 20000 M⁻¹ s⁻¹. For the same protein, in data set [4], the Km worked out at 117.6 ± 4.6 µM, the catalytic constant (kcat) is 0.75 ± 0.02 s⁻¹ and the specificity constant (kcat/Km) turned out to be 10000 M⁻¹ s⁻¹.

B3: mNMNAT2 (Mus musculus) (protein)
chain: MTETTKTHVILLACGSFNPITKGHIQMFERARDYLHKTGRFIVIGGIVSPVHDSYGKQGLVSSRHRLIMCQLAVQNSDWIRVDPWECYQDTWQTTCSVLEHHRDLMKRVTGCILSNVNTPSMTPVIGQPQHENTQPIYQNSNVPTKPTAAKILGKVGESLSRICCVRPPVERFTFVDENANLGTVMRYEEIELRILLLCGSDLLESFCIPGLWNEADMEVIVGDFGIVVVPRDAADTDRIMNHSSILRKYKNNIMVVKDDINHPMSVVSSTKSRLALQHGDGHVVDYLSQPVIDYILKSQLYINASG
notes: predicted mass 36668 Da
With B3, in data set [5], the Michaelis constant (Km) is 82.0 ± 15.1 µM, the turnover number (kcat) worked out at 2.33 s⁻¹ and the kcat/Km was 30000 M⁻¹ s⁻¹. For the same protein, in data set [6], the Km is 38.5 ± 13.5 µM, the catalytic constant (kcat) was 2.87 ± 0.5 s⁻¹ and the kcat/Km came out at 70000 M⁻¹ s⁻¹.
